This is an account of results in publication PMC4619645.

Bounds are passed on as bounds.

The term stoichiometry N denotes a count of units in the complex or per binding partner.

For assay [1], the target named is invariant surface glycoprotein ISG75 (Trypanosoma brucei brucei (endogenous in bloodstream-form cells, MITat 1.2, Lister 427)). The assay is described as follows: native gel or EMSA; Blue Native PAGE of bloodstream-form cell lysates, followed by western blotting; carried out as described in ref. 57. (Mobility shift assays separate free from complexed probe on a gel.)

The target in assay [2] is invariant surface glycoprotein ISG65 (Trypanosoma brucei brucei (endogenous in bloodstream-form cells, MITat 1.2, Lister 427)). Described as above.

Turning to “invariant surface glycoprotein ISG75 (natural protein)”, the stoichiometry N in assay [1] was greater than 2.
With “invariant surface glycoprotein ISG65 (natural protein)”, in assay [2], the stoichiometry N amounted to 2.
